{
  "source": "ChEMBL document CHEMBL1671804",
  "about": "“Normal and abnormal heme biosynthesis. Part 7. Synthesis and metabolism of coproporphyrinogen-III analogues with acetate or butyrate side chains on rings C and D. Development of a modified model for the active site of coproporphyrinogen oxidase” (Bioorg Med Chem, 2011)",
  "molecules": {"B1": {"name": "Oxygen-dependent coproporphyrinogen-III oxidase, mitochondrial (Homo sapiens), P36551 (protein)", "chain": "MALQLGRLSSGPCWLVARGGCGGPRAWSQCGGGGLRAWSQRSAAGRVCRPPGPAGTEQSRGLGHGSTSRGGPWVGTGLAAALAGLVGLATAAFGHVQRAEMLPKTSGTRATSLGRPEEEEDELAHRCSSFMAPPVTDLGELRRRPGDMKTKMELLILETQAQVCQALAQVDGGANFSVDRWERKEGGGGISCVLQDGCVFEKAGVSISVVHGNLSEEAAKQMRSRGKVLKTKDGKLPFCAMGVSSVIHPKNPHAPTIHFNYRYFEVEEADGNKQWWFGGGCDLTPTYLNQEDAVHFHRTLKEACDQHGPDLYPKFKKWCDDYFFIAHRGERRGIGGIFFDDLDSPSKEEVFRFVQSCARAVVPSYIPLVKKHCDDSFTPQEKLWQQLRRGRYVEFNLLYDRGTKFGLFTPGSRIESILMSLPLTARWEYMHSPSENSKEAEILEVLRHPRDWVR"}},
  "key": {"[1]": {"tested_on": "Uroporphyrinogen decarboxylase (Gallus gallus)", "assay": "Activity at chicken red cell hemolysate URO-D assessed as product formation after 150 mins"}, "[2]": {"target": "T1, Oxygen-dependent coproporphyrinogen-III oxidase, mitochondrial (Homo sapiens) (UniProt P36551)", "T1 sequence (whole entry)": "B1 chain", "assay": "Activity at recombinant human CPO assessed as product formation after 30 mins"}, "[3]": {"substrate": "Cc1c2[nH]c(c1CCC(=O)O)Cc1[nH]c(c(CCC(=O)O)c1C)Cc1[nH]c(c(CCC(=O)O)c1C)Cc1[nH]c(c(C)c1CCC(=O)O)C2", "assay": "(§1) Activity at recombinant human CPO"}, "[4]": {"substrate": "Cc1c2[nH]c(c1CCC(=O)O)Cc1[nH]c(c(CCC(=O)O)c1C)Cc1[nH]c(c(CC(=O)O)c1C)Cc1[nH]c(c(C)c1CC(=O)O)C2", "assay": "as §1"}, "[5]": {"substrate": "Cc1c2[nH]c(c1CCC(=O)O)Cc1[nH]c(c(CCC(=O)O)c1C)Cc1[nH]c(c(CCCC(=O)O)c1C)Cc1[nH]c(c(C)c1CCCC(=O)O)C2", "assay": "as §1"}},
  "data": [
    {"molecule": "Cc1c2[nH]c(c1CCC(=O)O)Cc1[nH]c(c(CCC(=O)O)c1C)Cc1[nH]c(c(CC(=O)O)c1C)Cc1[nH]c(c(C)c1CC(=O)O)C2", "values": [
      {"measurement": "Activity", "setting": "[1]", "value": 49.5, "unit": "%"},
      {"measurement": "Activity", "setting": "[2]", "value": 35.7, "unit": "%"}
    ]},
    {"molecule": "B1", "values": [
      {"measurement": "Km", "setting": "[3]", "value": 0.68, "unit": "µM"},
      {"measurement": "Km", "setting": "[4]", "value": 6.8, "unit": "µM"},
      {"measurement": "Km", "setting": "[5]", "value": 0.76, "unit": "µM"}
    ]}
  ]
}
